Measurements taken from the Human Domainome abundance scans (Beltran et al. 2025).
± gives the uncertainty stated by the source.

B1: Arginine-glutamic acid dipeptide repeats protein, residues 502 to 543; numbered along this chain, Q9P2R6 (parent)
chain: LKGYACRHCFTTTSKDWHHGGRENILLCTDCRIHFKKYGELP

Variants of: B1
Assay: abundance fitness (aPCA) (normalised: wild type 0, dead -1); higher = more abundant; growth selection in yeast, the domain comes from the species named
Details: Homo sapiens

Row | Variant | abundance fitness
1 | H18C | -0.03 ± 0.055
2 | H18L | -0.042 ± 0.044
3 | H18S | 0.004 ± 0.038
4 | H18Q | 0.09 ± 0.064
5 | H18Y | -0.089 ± 0.1
6 | H18F | -0.005 ± 0.046
7 | H18G | 0.057 ± 0.031
8 | H18K | 0.055 ± 0.046
9 | H18T | -0.029 ± 0.041
10 | H18A | 0.09 ± 0.044
11 | H18D | 0.115 ± 0.13
12 | H18N | -0.132 ± 0.051
13 | H18P | -0.333 ± 0.045
14 | H18W | -0.21 ± 0.068
15 | H18R | -0.193 ± 0.044
16 | H18I | -0.07 ± 0.047
17 | G21D | -0.236 ± 0.066
18 | G21E | -0.154 ± 0.046
19 | G21L | -0.274 ± 0.037
20 | G21M | -0.291 ± 0.048
21 | G21A | -0.142 ± 0.034
22 | G21S | -0.056 ± 0.041
23 | G21V | -0.23 ± 0.037
24 | G21Q | -0.222 ± 0.047

Row | Variant | abundance fitness
25 | G21R | -0.369 ± 0.038
26 | G21K | -0.377 ± 0.058
27 | G21H | -0.044 ± 0.47
28 | G21N | -0.515 ± 0.14
29 | G21I | -0.517 ± 0.23
30 | G21Y | -0.534 ± 0.26
31 | G21W | -0.493 ± 0.055
32 | G21P | -0.24 ± 0.035
33 | L26Q | -0.376 ± 0.05
34 | L26D | -0.244 ± 0.057
35 | L26P | -0.21 ± 0.063
36 | L26I | 0.004 ± 0.4
37 | L26K | -0.268 ± 0.062
38 | L26H | -0.386 ± 0.31
39 | L26T | -0.05 ± 0.062
40 | L26V | -0.18 ± 0.038
41 | L26G | -0.307 ± 0.04
42 | L26E | -0.167 ± 0.054
43 | L26M | 0.023 ± 0.076
44 | L26W | -0.188 ± 0.038
45 | L26R | -0.2 ± 0.038
46 | L26A | -0.311 ± 0.036
47 | L26F | -0.354 ± 0.11
48 | L26S | -0.36 ± 0.046

Row | Variant | abundance fitness
49 | L26Y | -0.403 ± 0.11
50 | W17V | -0.157 ± 0.039
51 | W17S | -0.198 ± 0.051
52 | W17T | -0.227 ± 0.053
53 | W17R | -0.276 ± 0.033
54 | L27A | -0.405 ± 0.036
55 | L27P | -0.396 ± 0.059
56 | L27F | -0.444 ± 0.07
57 | L27H | -0.086 ± 0.15
58 | L27Q | -0.498 ± 0.069
59 | L27T | -0.294 ± 0.059
60 | L27R | -0.554 ± 0.035
61 | L27K | -0.511 ± 0.045
62 | L27I | -0.172 ± 0.058
63 | L27G | -0.494 ± 0.039
64 | L27M | -0.209 ± 0.044
65 | L27D | -0.541 ± 0.081
66 | L27C | -0.217 ± 0.086
67 | L27E | -0.318 ± 0.044
68 | E23H | -0.185 ± 0.25
69 | E23S | -0.174 ± 0.038
70 | E23K | -0.136 ± 0.051
71 | E23Q | -0.038 ± 0.043
72 | E23I | -0.322 ± 0.058

Row | Variant | abundance fitness
73 | E23R | -0.255 ± 0.036
74 | E23T | -0.104 ± 0.043
75 | E23M | -0.187 ± 0.051
76 | E23L | -0.225 ± 0.035
77 | E23V | -0.338 ± 0.046
78 | E23D | 0.011 ± 0.054
79 | E23Y | -0.489 ± 0.4
80 | E23N | -0.099 ± 0.061
81 | E23C | -0.159 ± 0.05
82 | E23G | -0.113 ± 0.038
83 | I25S | -0.185 ± 0.043
84 | I25P | -0.141 ± 0.066
85 | I25N | -0.298 ± 0.061
86 | I25D | -0.16 ± 0.059
87 | I25Y | -0.187 ± 0.11
88 | I25C | -0.258 ± 0.065
89 | I25W | -0.073 ± 0.034
90 | I25E | -0.048 ± 0.036
91 | I25M | -0.15 ± 0.049
92 | I25G | -0.264 ± 0.039
93 | I25V | -0.015 ± 0.038
94 | I25T | -0.04 ± 0.083
95 | I25F | -0.213 ± 0.082
96 | I25H | -0.169 ± 0.044

Row | Variant | abundance fitness
97 | I25Q | -0.099 ± 0.047
98 | I25L | -0.05 ± 0.036
99 | I25A | -0.122 ± 0.035
100 | N24I | -0.299 ± 0.086
101 | N24K | -0.157 ± 0.059
102 | N24A | -0.146 ± 0.035
103 | N24M | -0.107 ± 0.042
104 | N24G | -0.026 ± 0.034
105 | N24V | -0.297 ± 0.048
106 | N24R | -0.146 ± 0.034
107 | N24S | 0 ± 0.035
108 | N24H | -0.094 ± 0.067
109 | N24C | -0.349 ± 0.086
110 | N24T | -0.239 ± 0.046
111 | N24P | -0.261 ± 0.049
112 | N24F | -0.242 ± 0.062
113 | N24W | -0.189 ± 0.033
114 | N24Y | -0.249 ± 0.067
115 | N24L | -0.191 ± 0.044
116 | N24E | -0.105 ± 0.041
117 | R22L | -0.081 ± 0.043
118 | R22V | -0.039 ± 0.049
119 | R22H | -0.221 ± 0.31
120 | R22T | 0.011 ± 0.042

Row | Variant | abundance fitness
121 | R22F | -0.058 ± 0.1
122 | R22N | 0.008 ± 0.082
123 | R22K | 0.071 ± 0.05
124 | R22W | -0.132 ± 0.039
125 | R22P | -0.027 ± 0.053
126 | R22Y | 0.113 ± 0.095
127 | R22S | -0.055 ± 0.037
128 | R22G | -0.048 ± 0.033
129 | R22A | 0.044 ± 0.035
130 | R22Q | 0.029 ± 0.053
131 | R22C | -0.067 ± 0.048
132 | R22M | -0.172 ± 0.087
133 | R22D | -0.026 ± 0.041
134 | R22E | -0.02 ± 0.043
135 | R22I | -0.157 ± 0.07
136 | H19R | -0.047 ± 0.034
137 | H19K | -0.047 ± 0.061
138 | H19E | 0.02 ± 0.04
139 | H19S | -0.026 ± 0.035
140 | H19Y | -0.246 ± 0.1
141 | H19P | -0.046 ± 0.043
142 | H19T | 0.095 ± 0.042
143 | H19I | -0.045 ± 0.054
144 | H19F | -0.064 ± 0.057

Row | Variant | abundance fitness
145 | H19A | -0.048 ± 0.035
146 | H19W | -0.204 ± 0.044
147 | H19M | 0.008 ± 0.048
148 | H19D | -0.225 ± 0.13
149 | H19C | -0.033 ± 0.083
150 | H19G | -0.073 ± 0.033
151 | G20C | -0.091 ± 0.057
152 | G20H | -0.203 ± 0.048
153 | G20I | -0.151 ± 0.053
154 | G20R | -0.45 ± 0.038
155 | G20K | -0.379 ± 0.06
156 | G20P | -0.375 ± 0.072
157 | G20T | -0.292 ± 0.14
158 | G20S | -0.212 ± 0.043
159 | G20Y | -0.422 ± 0.36
160 | G20V | -0.11 ± 0.035
161 | G20L | -0.32 ± 0.056
162 | G20E | -0.066 ± 0.036
163 | G20D | 0.097 ± 0.067
164 | G20A | -0.16 ± 0.036
165 | G20W | -0.141 ± 0.051
166 | G20Q | -0.179 ± 0.059
167 | G20M | -0.205 ± 0.042
